This is an account of results in a protein production outcome set (Wang et al. 2014).
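Note: failed if final PepcDB status was selected cloned or expressed and not failed if soluble or beyond.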

This data set in a line: label from the status in PepcDB records.
With “MTVSGPGTPEPRPATPGASSVEQLRKEGNELFKCGDYGGALAAYTQALGLDATPQDQAVLHRNRAACHLKLEDYDKAETEASKAIEKDGGDVKALYRRSQALEKLGRLDQAVLDLQRCVSLEPKNKVFQEALRNIGGQIQEKVRYMSSTDAKVEQMFQILLDPEEKGTEKKQKASQNLVVLAREDAGAEKIFRSNGVQLLQRLLDMGETDLMLAALRTLVGICSEHQSRTVATLSILGTRRVVSILGVESQAVSLAACHLLQVMFDALKEGVKKGFRGKEGAIIVDPARELKVLISNLLDLLTEVGVSGQGRDNALTLLIKAVPRKSLKDPNNSLTLWVIDQGLKKILEVGGSLQDPPGELAVTANSRMSASILLSKLFDDLKCDAERENFHRLCENYIKSWFEGQGLAGKLRAIQTVSCLLQGPCDAGNRALELSGVMESVIALCASEQEEEQLVAVEALIHAAGKAKRASFITANGVSLLKDLYKCSEKDSIRIRALVGLCKLGSAGGTDFSMKQFAEGSTLKLAKQCRKWLCNDQIDAGTRRWAVEGLAYLTFDADVKEEFVEDAAALKALFQLSRLEERSVLFAVASALVNCTNSYDYEEPDPKMVELAKYAKQHVPEQHPKDKPSFVRARVKKLLAAGVVSAMVCMVKTESPVLTSSCRELLSRVFLALVEEVEDRGTVVAQGGGRALIPLALEGTDVGQTKAAQALAKLTITSNPEMTFPGERIYEVVRPLVSLLHLNCSGLQNFEALMALTNLAGISERLRQKILKEKAVPMIEGYMFEEHEMIRRAATECMCNLAMSKEVQDLFEAQGNDRLKLLVLYSGEDDELLQRAAAGGLAMLTSMRPTLCSRIPQVTTHWLEILQALLLSSNQELQHRGAVVVLNMVEASREIASTLMESEMMEILSVLAKGDHSPVTRAAAACLDKAVEYGLIQPNQDGE”, the protein production result is reported as “failed”.

In the case of “KGESYKGKVAVASVVLNRTEKKGFPDTIRGVIYQKNAFEPVANGSINQKPDKESIEAAEEALSSKNRETDAIFFYNPKTASDNWIRSRKIVEKIGRHVFAV”, the protein production result is listed as “not failed”.

For “MAFIESWAKRTWLVPPQMQLYVDYKIKVTEILTNYTSIEEIHSYSIDESFLDITESLNFFYPDIRNRYEQMNLITLDLQREILDKLGLYVTVGMGDNPLLAKLAMDNYAKHNQNMRALIRYLEHHHHHH”, the protein production result is “failed”.

For the sequence “WMVQDSVGSGAALASLEGEETGRLWLAAQPEHGFQTLQGLAYALAREVRRLQPDSPYRLAGKGVLGALAYEVGLQLRGMGQTVACVALEGAPAWVRQSEALAVERSQASLPAWLRRCLSSYVPEPGDFPLQPTNMPASAEAFWRALG”, the protein production result was “failed”.

As to “MSAIDCIITAAGLSSRMGQWKMMLPWQQGTILDTSIKNALQFCSRIILVTGYRGNELHERYVNQSNITIIHNPDYAQGLLTSVKAAVPAVQTEHCFLTHGDMPTLTIDIFRKIWSLRNDGAILPLHNGIPGHPILVSKPCLMQAIKRPNITNMRQALLMGAHYSVEVENAEIILDIDTPDDFITVQKRYTKI”, the protein production result is recorded as “failed”.

For “MDTEIHNPHIPGGRPPSRPAIAALTFVIFMSLTLASWSVVQDLQERHENTRFDKRVAEVIHKIEHHFSGYEQVLKGALGHLLASPSVSRNEWRTYVNALRINDRYPGIHGIGFAKYIPRSGLAAHTEEVRAEGFPSYKVWPGTPRQEYTSIIYLEPFTGSNLRAFGYDMFSNAVRRAAMSRARDTGEVALTRKVKLVQETGEDIQAGVLMYLPYYGAANLPKTVEERRASLGGYVYAPFRMVDFVRATLGSELDILDLRIFDGKAMAEDSLLFDSVKHRSGPSPVPKFKRVIPISLYGQTWALEASSRPAFEKAIKNYEALLVLLGGFVVSMLTAMVSFVLSGNKEKAAALGHVNKKLLLAMEEQQATTRELSNAKLRTERILESITDAFYTLDREWRFTYVNKEAENLLQRNREDLLGRVCWEEFKETAGTTFDREYHRALMENRTVTFEEFYVPLDEWFEVHAYPSEEGLTVYFRDITERKESEQARQEAHVRIRQQASLLDKATDAIIVFGMDNCIEFWNQGAERLYGWTSEEVMGREVEMLYDNVAVFDEANRALLSSGEWRGELAQRRRDQSMLNVEAHWTLVRNDDGEPQAIFAINTDITQRKSAENEILHLALYDSLTGLPNRRLLLDRLGHALAVSARNQRMGALLFIDLDNFKLLNDTLGHDMGDLLLRQVAPRLSSCVRESDTVARLGGDEFVVILMGDFGEDHDEALTQISTICERIRSAFIQPFNLDPYIHHITPSIGIALFNDQSQTTNELLKRADLAMYQAKASGRNAMRFFDPDMQAAMNARAILESELYKSWERNEFILHYQLQVDSRGIIGAEALVRWQHPRRGLLPPSEFIPQAEETGLILPLGEWVLETACNQLASWALQPETVQLNLSVNVSSLQFCQPDFVEQVISILDRTGANPQRLKLELTESILVHDMDDTIAKMMTLKARGVGFALDDFGIGYSSLYYLKRLPLDWVKIDRSFVRDVLTDNNDATIVRTILLLAKSMGLAVIAEGVETGAQKDFLASHGCTAYQGYLFSRPLPLEQFERFVQPAAGGAV”, the protein production entry is listed as “failed”.

For “MNQPTSETRTVVVERELPHSPEKIWRALTQPHLIEAWLMKSDFEPVAGRTFSFHADWGSVDCTLLTIEPERVLSYTWAAYGLESVVTWTLTPTPGGTLLRMEQAGFRADQEQAYRGAQQGWVRFFDSLEQVVARADEDEEGRA”, the protein production entry was “failed”.

With “MEKYLRSGTMFVVLAFILWGLTPLYYQYLSGGNLAQILIYRVFWSIPLLLAVRLLFRQRTRFHDAWKDKKSFFFCMIAGLLMIVSWSSFIYALTHHLVLDASLGYFINPLFVIALGCIFLKEKLSLFQAIAVFSGVCGLTFQIIMLRHFPALALTMGLSFALYGLARKFIHYDVMTSITIETLWALPVSLLIFLFSDSGPIISANTPFFLYVMTAPVTIIPLVLFAIALNHTSLIVTGLAQYIEPSLQFLLAIMIFGEHINYAELLCFCAVWFGLFLCISENLYSHYLRARLKPVFGRVQRFFR”, the protein production result is “failed”.

For “MFFLRTTKRMESYSQNSNKLDFQHEARILNSIWLITALGLVATAGLAWGAKYLEITATKYDSPQMYVAIGLLLLSMYGLSKDINKINTAIAGVIYLFLISLVAIVVASLAPVSAIIVVFSTAGSMFLISMLAGLLFKFDPGSHRFIIMMTLTGLALVIIVNATLMSERPIWVISCLMIVLWSGIISHGRNKLLELTGKSHSEELWSSVRCAFIGALTLYYYFIGFFGILAAIAITLVWQRHTRFFH”, the protein production entry is reported as “failed”.

Take “MAIDAFALILAMLGLGLLFARLRVLPDNSADVLNRIVLYICLPASVLTYVPRLHLDASLGGVIATPWLLTAIIVPLLWGCSRLLRFGRAEYAALLMCVVFTNSSFIGFPMVRALIGDHALPYAVVYDQFGTFVLLSTFGLYVLARYSGDTPPTARLIVMRVLQFPPLWALLFALTLMPGQPPAWIGSGLKNLADAMLPLVMLSVGFSLQLRLPADELKPLAVGLVFKLLLMPVLALPLSWVLGLRGQMLQTNVLESAMPTMITAAALAISHRLAPRLAAAMVGYSILLSLLTLPAWAWLLARLVA”: the protein production result was “failed”.

Regarding “MARVRFENKRVNMSKLSQFGFEPNQNGQYQFRILIMQGQFEMIIELNTDGSLNTTLTDTTTSEVYVLHLTSQAHGQFVGQVAQAYQDVLYNIEQHCYDNDVFQSTPERKLIAQVKAAYGDDLEFLWPKFPQNAVWRRSDTHKWYGALLTVTSDKLALPGATHVVTVLDLRARPEDLSMLIDGQHYLPGYHMNKKHWYSILLDDVVPLATIMDDVKVSYMLAKLEHHHHHH”, the protein production result is on record as “not failed”.

In the case of “MEHIEIRVSATGSMSSFHALCSFHQWPINVACSCWLSHCYRIYSLYPPQLVSCSDRLSTSGNTNAGAEFVTE”, the protein production result is given as “failed”.

For the sequence “MSLNARARALRHSRSGTIGLIVPDVNNAVFADMFSGVQMAASGHSTDVLLGQIDAPPRGTQQLSRLVSEGRVDGVLLQRREDFDDDMLAAVLEGVPAVTINSRVPGRVGSVILDDQKGGGIATEHLITLGHSRIAFISGTAIHDTAQRRKEGYLETLASAGLRSEAAWVVDAGWEADAGSAALNTLYRGANLGKPDGPTAVVVASVNAAVGALSTALRLGLRVPEDLSIVGINTTWVSDTVYPALTTVRLPLQRLGEVAADVLMEHLGGRALTDTVVTQPTPELLVRETTAPPTREGHHHHHH”, the protein production entry is “not failed”.

Take “MAELDIGQHCQVQHCRQRDFLPFVCDGCSGIFCLEHRSKDSHGCSEVNVVKERPKTDEHKSY”: the protein production entry is listed as “not failed”.

Turning to “MVVKFTKSEALHKEALEHIVGGVNSPSRSFKAVGGGAPIAMERGKGAYFWDVDGNKYIDYLAAYGPIITGHAHPHITKAITTAAENGVLYGTPTALEVKFAKMLKEAMPALDKVRFVNSGTEAVMTTIRVARAYTGRTKIMKFAGCYHGHSDLVLVAAGSGPSTLGTPDSAGVPQSIAQEVITVPFNNVETLKEALDKWGHEVAAILVEPIVGNFGIVEPKPGFLEKVNELVHEAGALVIYDEVITAFRFMYGGAQDLLGVTPDLTALGKVIGGGLPIGAYGGKKEIMEQVAPLGPAYQAGTMAGNPASMASGIACLEVLQQEGLYEKLDELGAMLEKGILEQAAKHNIDITLNRLKGALTVYFTTNTIEDYDAAQDTDGEMFGKFFKLMLQEGVNLAPSKYEAWFLTTEHTKEDIEYTIEAVGRAFAALADNK”, the protein production entry was “not failed”.

As to “MSSNNVTTDVVSVDEQAFENAGGQAVDEDGFPVVDETPAFEAEVEQETQAKVDANHPDGIADTSEDRIHGVTLEQEERIRAREAELERISAQAELGTQDGREQRTRAVAAEGSTERRREFQQRAASVEPMADPERDDPRAELSQDELATVNTEADRLATRLDGWSRAAISRRLAEAIVDGRDLTSAVVRVFEELQTAPGGTVPIDALEDIDRKEVSVEGRVTQLWEPSSPSIAQVGLIEDESGRTKLTSWKASDAPWIEEGERVRIHGAAKNWYNGRVSVAVTGWSTLHFPERGRWWDE”, the protein production entry was “failed”.

Turning to “MVVMYFLFPETTNVVIVSALNFAALFLSFFTHYTSSRKDEDLTILAFSCLFSSLLSLFFLRIFLMNPKNAWMFLSSSKLILAEGFFFFLIGKKKNSFKWLVVLTFVILFAVSVLRFDFTLHLESVSLALFSLLLLIRKPQTTLLSVSLFLYSISSIFFYFFRSAYPYHVASGSIFLMWHFVKKYVETPKEEAEKLSKELEIPPERISSAVTNLYNFLIEILRIIPEILREDDQNRVREMLSKYFSQEVSSYFPKLRDAFSKFAEEYISFLEEKQKFQDMYVVLTKNLAHNLKNPVNAIYVSAQLLKQQFPETSPVVRNIEKLCHEMTEEIERILKTSIGRSEVLRKNDVEKALEPILETARLKNLETDIEMEFDELEIDKDAFLALVLNLFSNAVKYTPSGRVVLKIEKKNDKINLRVSDTGPGLKEQNGFGLFTVKKLVNYLNGSMEVIKKDGTTFVITLPLRRDKNDSTDRGR”, the protein production entry was “failed”.

In the case of “QQAIADQLLEMILQSQDLHNAYRLVVEGLQRGLGVDRVLLVQNAVFPNRQSRLVAQAIAPARDIMLLDEPCADCRWLHLLGQLPHYGLWTVWEGEGEFVQLDPVQGEFCRTLGIKSLLHLPLVINQRHWGVLSLQYLHQARPWPLEDQQFAQRIAHLFCLGLMKTELWIHCQNHKNALQTVVAEGQ”, the protein production result was “failed”.

Regarding “MAKSMRCKRVKRLRAIRREIVEKESFTLTREDAKSAAIEAALAAPKLPVRQAPVSPFMEVATPSSESASASTTIANDSDEEMDDEKKNKSLKPIGKKLKKKFKLGMKNRRSKGVLRGKRN”, the protein production entry is on record as “failed”.

“MSSLKGKRIGFGLTGSHCTYEAVFPQIEELVNEGAEVRPVVTFNVKSTNTRFGEGAEWVKKIEDLTGYEAIDSIVKAEPLGPKLPLDCMVIAPLTGNSMSKLANAMTDSPVLMAAKATIRNNRPVVLGISTNDALGLNGTNLMRLMSTKNIFFIPFGQDDPFKKPNSMVAKMDLLPQTIEKALMHQQLQPILVENYQGND”: the protein production entry is recorded as “failed”.

For the sequence “MKELLKLDFFIQKKYIKSSIIVFLFLGITFALTQGMNYLYTMGTFIVFYLTIIPIEVERKSKFNIYLNSLPNKKSNYIYSKYLSTLIYIIVVNLFLYLFCTILGVISGSDFTLTLRAILPNIIVQLFYVSLTLPVYMIISHKFYRVVNIIFTILIMMISSILFNSLENENLQVLFNITNGVYGLAFGILALIISLIVSLNIYKKSEVS”, the protein production entry was “failed”.
